In the DeepSol protein solubility set:

Test: soluble on expression in E. coli; label from the status in PepcDB or PDB records

Sequence	soluble on expression in E. coli
MSKEDFVIKPEAAGASTDTSEWPLLLKNFDKLLVRSGHYTPIPAGSSPLKRDLKSYISSGVINLDKPSNPSSHEVVAWIKRILRCEKTGHSGTLDPKVTGCLIVCIDRATRLVKSQQGAGKEYVCIVRLHDALKDEKDLGRSLENLTGALFQRPPLISAVKRQLRVRTIYESNLIEFDNKRNLGVFWASCEAGTYMRTLCVHLGMLLGVGGHMQELRRVRSGALSENDNMVTLHDVMDAQWVYDNTRDESYLRSIIQPLETLLVGYKRIVVKDSAVNAVCYGAKLMIPGLLRYEEGIELYDEIVLITTKGEAIAVAIAQMSTVDLASCDHGVVASVKRCIMERDLYPRRWGLGPVAQKKKQMKADGKLDKYGRVNENTPEQWKKEYVPLDNAEQSTSSSQETKETEEEPKKAKEDSLIKEVETEKEEVKEDDSKKEKKEKKDKKEKKEKKEKKDKKEKKEKKEKKRKSEDGDSEEKKSKKSKK	not soluble
MGSDKIHHHHHHMDLVEEILRLKEERNAIILAHNYQLPEVQDIADFIGDSLELARRATRVDADVIVFAGVDFMAETAKILNPDKVVLIPSREATCAMANMLKVEHILEAKRKYPNAPVVLYVNSTAEAKAYADVTVTSANAVEVVKKLDSDVVIFGPDKNLAHYVAKMTGKKIIPVPSKGHCYVHQKFTLDDVERAKKLHPNAKLMIHPECIPEVQEKADIIASTGGMIKRACEWDEWVVFTEREMVYRLRKLYPQKKFYPAREDAFCIGMKAITLKNIYESLKDMKYKVEVPEEIARKARKAIERMLEMSK	not soluble
MSLNSATHLAAHEGSARRRQALGEFVRTARARITPQMAGLPAGSRRRTPGLRREEVAQLSDISVTWYTWIEQGREVTVSPAVWARIANVLHLARAERAYLFELAECADPQQPRDEGGDAPVSLQACVDAIDAPAYALDRAWNLLASNAAMRELFDDWPLRDAQPNLLRYIFLDPAARELVVDWDQRARRVVAEFRADAGAHLDEADVVALLDELNRASPVFAHWWTRHAVVEREGGLREFQHPRSGRQNLQQITFRLATHPELKLVMLLPSEGHHHHHH	soluble
SGPLRDKVVIFIYWRENDLSIYLDLSGEPISRHGYRLNPWKAPMAETLAAGVIITSEWNPTTPFINPMCGSGTLAIEAALIGTHKIPGLVREDYAFQHIHGYVAETWKTMREMAQQKVLPALPFKIIASDHDQRALDAAKVNAEKAGVDHLIDFVLSDFQDTPVEENQAGVVILNPEYGERLGDEESLVLTYKEIGDFFKQKCGGYKGFVFTGNLELAKRIGLKPKRKIKFFSAKIECRLMQYELYSGTKRVVFKTE	not soluble
MDVMNAFDSQAEDSPTSLGRSLRRRPLARKKLSEMVEEELEQMIRRHEFGEGEQLPSERELMAFFNVGRPSVREALAALKRKGLVQINNGERARVSRPSADTIISELSGMAKDFLTHPGGIAHFEQLRLFFESSLVRYAAEHATDEQIALLTKALEINSQSLDDNALFIRSDVEFHRVLAEIPGNPIFMAIHVALLDWLIAARPSVPDRELHEHNNVSYQQHIVIVDAIRQRDPDKADRALQTHLNSVSATWHALGKKSQKMR	not soluble
MSLTRKKYTYKMRSYINASHAIRWEAGIGSEHPHTWEIICEIVSSNDHMIKFEDIEEVITETISGLSGKFLNTIAPFDKINPTLENLTNYLFDMITDSLKKINCKLIRIEVGESPTRFYCISLDEGHHHHHH	soluble
MAGNHTNRPGLRKTNKKGATKGSGAVRRRGLKGKGPTPKAEDREYHAAYKKKMERKRRDQGRHVKEETSELVVGRNPVVECLHAKVPATT	not soluble
MGSSHHHHHHSSGLVPRGSHMDKGKSVKSTEKSVGMPPKTPKTDNNAHVDNEFLILQVNDAVFPIGSYTHSFGLETYIQQKKVTNKESALEYLKANLSSQFLYTEMLSLKLTYESALQQDLKKILGVEEVIMLSTSPMELRLANQKLGNRFIKTLQAMNELDMGEFFNAYAQKTKDPTHATSYGVFAASLGIELKKALRHYLYAQTSNMVINCVKSVPLSQNDGQKILLSLQSPFNQLIEKTLELDESHLCTASVQNDIKAMQHESLYSRLYMS	soluble
GGVQLNFGGNFTYNKNEILSLGNVDVQKDARTIRMVGKEFNAFYGYKSDGIFQSKEEIANAPKYTMISNDRLIPGDIKLVDINGDGEINPDDKVILSSENPKYTFAFNLGARWKMFDINLFFQGAAGVSRYFTDEFYGEFNGDSGHPSNHWLGRWTPENPTNKWPRASKFRTYNLPETTCSDFWLVNTNYLRLKDIQVGFNVPKEWLQAVRLGSARIYYSGTNLLTFSKTPQGIDPEAPAGWGAYYPHVKTHSIGINITL	not soluble
MNYELIVVGGGPAGLAAAYEAYNNGIKNILILERDKELGGILNQCIHNGFGLHTFKEELTGPEYADRFIEMVKDTNVEVKLNTMVLEITKDKKVYAINSKEGYMELEAKAIILSMGCRERTRGAINIPGDRPAGVFTAGAAQRYINVEGYMPGKEVVILGSGDIGLIMARRMTLEGAKVKAVVELCPYSNGLNRNIVQCLNDYNIPLYLSHTVTDIIGKERLEKVIIAKVDENRRPIKGTEIEFDADTLLLSVGLIPENELSSNAGIELDRRTNGLRVTESMETSIDGIFACGNVVHVHDLVDFVTEESKRTGASAAKYIKGELKKDKYVNIVNGTNVNYTVPQKLNVDDVEDRLTIFMRVNNIYHNKVLVVRSKEEVIAKFKRAHLAPSEMEKVVLGKAFLDKIKSDITISLEDGE	not soluble
MAQFSIFPEQNSLQDLLNIHSVQEDTQYKSMGIYDLKTCEIPMRPPTHQNPAQKEHNTMEDEMMAVLNSFSRRIEIMSAPEPKAFRYYFEISPPPKPEAPKSQLGLGDLSEESYPLTPEPIQLDTCLTWSPVELQFDPFAEPEPIFYNEEMDSGPTPEPIPDIFESPRSEVEAVKMFRSEVIYEDFAEE	not soluble
MKTIHIRELADWLDGALQAARFKDYCPNGLQVEGKAEIAHIITGVTASEALLRAAIERGADAVLVHHGWFWRNEDRRVLGPRRTRLALALGHELNLLAYHLPLDAHPQWGNNAQLARVLGLQAETGPDGAPRTCGADNLVWLGSAPGVQTVAQLQQRVAERLGRTPLVVGEPDRPVRRVAWCTGGAQGMLADAVDAGADAYITGEASESTVHLARETGVAFVGAGHHATERYGVQALGEAVARQFGIRVEFIDIDNPVLEHHHHHH	not soluble
MTAIRFDHVDVIFGTHTKEALKLLDQGLGRAEILKRTGQVLGVEDACLDVNRGEICVLMGLSGSGKSSLLRCINGLNKVSRGKLLIEHEGSQVDIANCSPATLKAMRTKRIAMVFQKFALMPWLTVAENVGFGLEMQGRPAAERKKLIDEKLELVGLSQWRDKRPDSLSGGMQQRVGLARALAMDGDILLMDEPFSALDPLIRQQLQDELLVLQRQLHKTIVFVSHDLDEALKIGTRIAIMKDGRIIQHGKPEEIVLSPADDYVRTFVAHTNPLNVLCGQSLMRGLDQCIRQNDEICFDQGRDCWIGLSEGDVLKGARQGSNVIDLQRWRQGDPVEKLRREPTLVDVSIRMRDALQIRYQTGHKLVLQEQDRVVGVLGDSELYHALLGKN	not soluble
MSRQPKPARLAGGALALGLLLGLPNPVEAAQDNGMEHSAMDHGAMPGMDHGAASPAPAQPMEHRGMDHGRMPGMSHAARQPPAQAASSQSRTPIPVPTEADRRAAFPPLEGHKVHDSALNSFFLLDQLEYQDADDGSALAWDASGWIGGDINRLWLRSEGERLDGKTEDAEVQALFGHAIGPWWDLVAGVRQDFKPGSPQTWAAFGVQGLALYDFEAEVTAFLGENGQSALRLEGEYDILLTNRLILQPSAEVNLYGRNDPARGIGSGLADSELGLRLRYEIRREFAPYIGVTWNRSYGNSADLARAEGEDDDEARFVAGIRMWFLEHHHHHH	not soluble
STGKKPKHHVLSHDIIPASKPIAEKLQIQPESPVVELKRILYNDDQPLTFEVTHYPLDLFPGIDTFIADGVSMHDILKQQYKVVPTHNTKLLNVVYAQQEESKYLDCDIGDALFEIDKTAFTSNDQPIYCSLFLMHTNRVT	not soluble
MSVQNGFTAKIIRFVPHFVALRLSWTHNDLKAEGLEQFVEECLPAIRENNPQVKYFLQRSYTTCDPFVVGEYSWLRHRKKRVNWKSKEQVLSMIEEMSIGGDYREGYKRGVNRRLPRGQELWDTETMGHDVFHVTSKWKADIPEEDELPITAKTHPNFTYRKY	not soluble
MSPKFAADLKKTIYDNMTFDPKHYGGRWNILQDHGTSHLSIVDSERNAVSMTTTVNAYFGSLILSPSTGILLNNEMDDFSMPANTSANSPPPAPANFVRPLKRPLSSMTPTIILKDGNLKAAVGASGGSMIPAGTMEVLLNHFVKNMDPLSSVMAPRVYHQLIPNVVQYENWTTVTGDHFELDAATRADLRRKGHVLEPLAGGTISQLVVDDVERHGGLTAVSDPRKGGFPAGY	soluble
MFEPGHLHLVSLPGLDQQDINIHIRYEVRQNAESGAYVHFDMDGEIDGKPFSDSFELPRDTAFNFASDATRVAQKHGLHPKFGAITRVHKEYDAMFEDIRAKLHAHPGEPVDLERIIRHE	not soluble
MGSDKIHHHHHHVRVTSSSGSCITIPTGVTNVTIRDSEIGPCGQPGDTSAKGIDIQSGASNITVQRNYIHDMATALYAAGARHPIIFDRNRVTNIRGPFPRGQMVQFNGVKSGTSGSKVTCNVSDVQGATYSNVEDHINMYDSGGLSNDRTEIAYNRLRGGSPTSNSGTAIMVGDGASGGNAWVHHNTIVNVRNVGIGVAGGTNIDVESNRIYMDRAATYTNVGLYVWSQGGGSCSGHSVTGNRAWVNSSNGAQNPWWNGGNCGAVELVSNVWGDTSLSSSMFNEVPSQCQ	not soluble
MIACICAITVMAQVQTHDVKGVVFDRRQQPIVGALVTAKGTNISTITDVDGKFLLQEVPLSVKKVVVTSIGMETREVDLNVPVQLTGKRKKVSFVAHAGLSMSKYTIYGSDFKVGYEFGLGIEVRMSKRWAFQPTLQICNHGAEFNAERYGVKYQETWNPVSLDLPMLFILRCPIARKMNLAFSMGPVFSYGFAGKVKASETGKPDEEYDIYSSEYEYDYSGGKHSLLHPFSFGVAYGIGVEYKKWLAGISGKSMCLGQDDEGFEAKEHNLVLTLGVIYRF	not soluble
